Patent US20260085129A1 (ECO ANIMAL HEALTH, published 2026)

T1: porcine CD163, membrane-bound form on porcine pulmonary alveolar macrophage (pPAM) WT cells (porcine, UniProt Q2VL90 47-1115)
T1 sequence: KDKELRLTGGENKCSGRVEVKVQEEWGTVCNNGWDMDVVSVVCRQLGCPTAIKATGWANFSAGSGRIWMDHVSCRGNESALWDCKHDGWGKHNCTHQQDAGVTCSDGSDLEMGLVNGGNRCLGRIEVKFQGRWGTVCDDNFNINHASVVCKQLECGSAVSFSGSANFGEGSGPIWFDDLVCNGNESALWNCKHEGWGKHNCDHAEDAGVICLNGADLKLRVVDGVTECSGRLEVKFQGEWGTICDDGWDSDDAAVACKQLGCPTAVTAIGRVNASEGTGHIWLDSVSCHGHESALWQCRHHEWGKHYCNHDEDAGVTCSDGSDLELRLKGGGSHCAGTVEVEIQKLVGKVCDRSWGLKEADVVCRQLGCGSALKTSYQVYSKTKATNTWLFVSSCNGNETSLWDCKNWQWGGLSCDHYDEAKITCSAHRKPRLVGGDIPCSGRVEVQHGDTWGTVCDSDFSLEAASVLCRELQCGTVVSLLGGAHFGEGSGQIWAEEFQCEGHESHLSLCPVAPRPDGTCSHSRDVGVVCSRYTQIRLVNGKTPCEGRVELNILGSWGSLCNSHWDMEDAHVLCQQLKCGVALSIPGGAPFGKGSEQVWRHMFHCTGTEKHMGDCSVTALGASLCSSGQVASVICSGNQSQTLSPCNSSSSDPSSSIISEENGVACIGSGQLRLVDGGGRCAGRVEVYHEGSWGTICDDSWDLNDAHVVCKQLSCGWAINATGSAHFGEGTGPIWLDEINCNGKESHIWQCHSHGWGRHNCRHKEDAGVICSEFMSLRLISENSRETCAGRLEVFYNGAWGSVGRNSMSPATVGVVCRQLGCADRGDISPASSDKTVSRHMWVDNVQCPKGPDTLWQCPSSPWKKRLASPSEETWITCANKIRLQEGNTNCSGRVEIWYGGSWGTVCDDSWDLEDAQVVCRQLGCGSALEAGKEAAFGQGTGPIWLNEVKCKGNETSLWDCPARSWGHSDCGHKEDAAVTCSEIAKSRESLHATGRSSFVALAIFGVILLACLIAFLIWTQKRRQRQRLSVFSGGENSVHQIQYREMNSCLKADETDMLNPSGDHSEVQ


Legend:
[1] = target: T1, porcine CD163, membrane-bound form on …; assay: cell-based or functional assay
[2] = target: T1, porcine CD163, membrane-bound form on …; assay: cell-based or functional assay; remark: listed apart in the source
[3] = target: T1, porcine CD163, membrane-bound form on …; assay: dose-response FACS on pPAM WT cells, anti-FLAG-biotin and streptavidin R-PE detection
Protocol: Biparatopic and triparatopic antibody constructs in PBS (pH7.4) were diluted in a 3-fold serial dilutions from 150 nM down to 0.023 nM in FACS buffer (0.5% FBS, 0.5 mM EDTA in 1×PBS pH7.4). Biparatopic and triparatopic candidates were incubated with anti-FLAG-Biotin (Sigma, Cat. nr. F9291), for 30 min on ice with shaking. This mixture was added to pPAM WT cells and incubated for 60 min on ice with gentle shaking. Cells were washed 3×with 150 μl/well of FACS buffer and incubated with 50 μl/well of the secondary detection reagent Streptavidin R-P.E. conjugate antibody (Invitrogen, Cat. nr. SA10044) for 30 min on ice with shaking and protected from light. Cells were then washed 3× with 150 μl/well of FACS Buffer and resuspended in 50 μl/well of FACS buffer to be measured on a FACS machine (Attune™ N×T), and a total of 10000 cells were acquired per sample.

Binder	EC50 [3]	also measured
03E11 + 03D03 + 17B11 2(G4S) triparatopic VHH construct (bispecific antibody, Triparatopic: three anti-porcine CD163 VHHs in one chain; also called Tri-2; Tri2; not shown: FLAG and His tags) QVQLQESGGGLVQVGSSLRLSCVTSGRTPSRYVMGWFRQAPGQEREFVAAISWSGRAPYADSVKGRFTISRDNAKNTVYLQMNSLKPEDTGVYYCAGGEGAIKWTTLDAYDYWGQGTQVTVSSGGGGSGGGGSQLQLVESGGGLVQPGGSLRLSCAASGFTLDDYTIGWFRQAPGKEREGVSCINSITSNTYYADSVKGRFTISRDNAKNTVYLQMNSLTAEDTAIYYCAADSGLFSGSSCLKYRAMRFGSWGQGTQVTVSSGGGGSGGGGSQVQLVESGGGLVQAGGSLRLSCAASGRTFSSYAMGWFRQTPGKDREFVARIGWTGGTTIYADSVKGRFTISRDNAKNTVYLQMNSLKPEDTAVYYCAADQAGWRTAGVRNTYEYDYWGQGTQVTVSS	9.1 nM	IC50, PRRSV1 LT3 infection assay, high CD163 porcine serum [1]: 2.96 nM; IC50, PRRSV1 LT3 infection assay, low CD163 porcine serum [1]: 2.81 nM; IC50, PRRSV2 strain MN184 infection assay, 10% FBS [2]: 2.13 nM; IC50, PRRSV2 strain NA174 infection assay, high CD163 porcine serum [2]: 5.01 nM; IC50, PRRSV2 strain NA174 infection assay, low CD163 porcine serum [2]: 4.99 nM
03E11 + 03D03 2(G4S) biparatopic VHH construct (bispecific antibody, Biparatopic: two anti-porcine CD163 VHHs in one chain; also called 19-17; 03D03+03E11; not shown: FLAG and His tags) QVQLQESGGGLVQVGSSLRLSCVTSGRTPSRYVMGWFRQAPGQEREFVAAISWSGRAPYADSVKGRFTISRDNAKNTVYLQMNSLKPEDTGVYYCAGGEGAIKWTTLDAYDYWGQGTQVTVSSGGGGSGGGGSQLQLVESGGGLVQPGGSLRLSCAASGFTLDDYTIGWFRQAPGKEREGVSCINSITSNTYYADSVKGRFTISRDNAKNTVYLQMNSLTAEDTAIYYCAADSGLFSGSSCLKYRAMRFGSWGQGTQVTVSS	8.4 nM	–
03E11 + 03D03 5(G4S) biparatopic VHH construct (bispecific antibody, Biparatopic; not shown: FLAG and His tags) QVQLQESGGGLVQVGSSLRLSCVTSGRTPSRYVMGWFRQAPGQEREFVAAISWSGRAPYADSVKGRFTISRDNAKNTVYLQMNSLKPEDTGVYYCAGGEGAIKWTTLDAYDYWGQGTQVTVSSGGGGSGGGGSGGGGSGGGGSGGGGSQLQLVESGGGLVQPGGSLRLSCAASGFTLDDYTIGWFRQAPGKEREGVSCINSITSNTYYADSVKGRFTISRDNAKNTVYLQMNSLTAEDTAIYYCAADSGLFSGSSCLKYRAMRFGSWGQGTQVTVSS	6.5 nM	–
03E11 + 17B11 2(G4S) biparatopic VHH construct (bispecific antibody, Biparatopic; not shown: FLAG and His tags) QVQLQESGGGLVQVGSSLRLSCVTSGRTPSRYVMGWFRQAPGQEREFVAAISWSGRAPYADSVKGRFTISRDNAKNTVYLQMNSLKPEDTGVYYCAGGEGAIKWTTLDAYDYWGQGTQVTVSSGGGGSGGGGSQVQLVESGGGLVQAGGSLRLSCAASGRTFSSYAMGWFRQTPGKDREFVARIGWTGGTTIYADSVKGRFTISRDNAKNTVYLQMNSLKPEDTAVYYCAADQAGWRTAGVRNTYEYDYWGQGTQVTVSS	6.8 nM	–
03E11 + 17B11 5(G4S) biparatopic VHH construct (bispecific antibody, Biparatopic; not shown: FLAG and His tags) QVQLQESGGGLVQVGSSLRLSCVTSGRTPSRYVMGWFRQAPGQEREFVAAISWSGRAPYADSVKGRFTISRDNAKNTVYLQMNSLKPEDTGVYYCAGGEGAIKWTTLDAYDYWGQGTQVTVSSGGGGSGGGGSGGGGSGGGGSGGGGSQVQLVESGGGLVQAGGSLRLSCAASGRTFSSYAMGWFRQTPGKDREFVARIGWTGGTTIYADSVKGRFTISRDNAKNTVYLQMNSLKPEDTAVYYCAADQAGWRTAGVRNTYEYDYWGQGTQVTVSS	8.4 nM	–
17B11 + 03D03 2(G4S) biparatopic VHH construct (bispecific antibody, Biparatopic; not shown: FLAG and His tags) QVQLVESGGGLVQAGGSLRLSCAASGRTFSSYAMGWFRQTPGKDREFVARIGWTGGTTIYADSVKGRFTISRDNAKNTVYLQMNSLKPEDTAVYYCAADQAGWRTAGVRNTYEYDYWGQGTQVTVSSGGGGSGGGGSQLQLVESGGGLVQPGGSLRLSCAASGFTLDDYTIGWFRQAPGKEREGVSCINSITSNTYYADSVKGRFTISRDNAKNTVYLQMNSLTAEDTAIYYCAADSGLFSGSSCLKYRAMRFGSWGQGTQVTVSS	6.6 nM	–
17B11 + 03D03 5(G4S) biparatopic VHH construct (bispecific antibody, Biparatopic; not shown: FLAG and His tags) QVQLVESGGGLVQAGGSLRLSCAASGRTFSSYAMGWFRQTPGKDREFVARIGWTGGTTIYADSVKGRFTISRDNAKNTVYLQMNSLKPEDTAVYYCAADQAGWRTAGVRNTYEYDYWGQGTQVTVSSGGGGSGGGGSGGGGSGGGGSGGGGSQLQLVESGGGLVQPGGSLRLSCAASGFTLDDYTIGWFRQAPGKEREGVSCINSITSNTYYADSVKGRFTISRDNAKNTVYLQMNSLTAEDTAIYYCAADSGLFSGSSCLKYRAMRFGSWGQGTQVTVSS	6.6 nM	–
03E11 + 17B11 + 03D03 2(G4S) triparatopic VHH construct (bispecific antibody, Triparatopic; not shown: FLAG and His tags) QVQLQESGGGLVQVGSSLRLSCVTSGRTPSRYVMGWFRQAPGQEREFVAAISWSGRAPYADSVKGRFTISRDNAKNTVYLQMNSLKPEDTGVYYCAGGEGAIKWTTLDAYDYWGQGTQVTVSSGGGGSGGGGSQVQLVESGGGLVQAGGSLRLSCAASGRTFSSYAMGWFRQTPGKDREFVARIGWTGGTTIYADSVKGRFTISRDNAKNTVYLQMNSLKPEDTAVYYCAADQAGWRTAGVRNTYEYDYWGQGTQVTVSSGGGGSGGGGSQLQLVESGGGLVQPGGSLRLSCAASGFTLDDYTIGWFRQAPGKEREGVSCINSITSNTYYADSVKGRFTISRDNAKNTVYLQMNSLTAEDTAIYYCAADSGLFSGSSCLKYRAMRFGSWGQGTQVTVSS	18.2 nM	–
03D03 + 03E11 + 17B11 2(G4S) triparatopic VHH construct (bispecific antibody, Triparatopic; not shown: FLAG and His tags) QLQLVESGGGLVQPGGSLRLSCAASGFTLDDYTIGWFRQAPGKEREGVSCINSITSNTYYADSVKGRFTISRDNAKNTVYLQMNSLTAEDTAIYYCAADSGLFSGSSCLKYRAMRFGSWGQGTQVTVSSGGGGSGGGGSQVQLQESGGGLVQVGSSLRLSCVTSGRTPSRYVMGWFRQAPGQEREFVAAISWSGRAPYADSVKGRFTISRDNAKNTVYLQMNSLKPEDTGVYYCAGGEGAIKWTTLDAYDYWGQGTQVTVSSGGGGSGGGGSQVQLVESGGGLVQAGGSLRLSCAASGRTFSSYAMGWFRQTPGKDREFVARIGWTGGTTIYADSVKGRFTISRDNAKNTVYLQMNSLKPEDTAVYYCAADQAGWRTAGVRNTYEYDYWGQGTQVTVSS	3.8 nM	–
03D03 + 17B11 + 03E11 2(G4S) triparatopic VHH construct (bispecific antibody, Triparatopic; not shown: FLAG and His tags) QLQLVESGGGLVQPGGSLRLSCAASGFTLDDYTIGWFRQAPGKEREGVSCINSITSNTYYADSVKGRFTISRDNAKNTVYLQMNSLTAEDTAIYYCAADSGLFSGSSCLKYRAMRFGSWGQGTQVTVSSGGGGSGGGGSQVQLVESGGGLVQAGGSLRLSCAASGRTFSSYAMGWFRQTPGKDREFVARIGWTGGTTIYADSVKGRFTISRDNAKNTVYLQMNSLKPEDTAVYYCAADQAGWRTAGVRNTYEYDYWGQGTQVTVSSGGGGSGGGGSQVQLQESGGGLVQVGSSLRLSCVTSGRTPSRYVMGWFRQAPGQEREFVAAISWSGRAPYADSVKGRFTISRDNAKNTVYLQMNSLKPEDTGVYYCAGGEGAIKWTTLDAYDYWGQGTQVTVSS	13.6 nM	–
17B11 + 03D03 + 03E11 2(G4S) triparatopic VHH construct (bispecific antibody, Triparatopic; not shown: FLAG and His tags) QVQLVESGGGLVQAGGSLRLSCAASGRTFSSYAMGWFRQTPGKDREFVARIGWTGGTTIYADSVKGRFTISRDNAKNTVYLQMNSLKPEDTAVYYCAADQAGWRTAGVRNTYEYDYWGQGTQVTVSSGGGGSGGGGSQLQLVESGGGLVQPGGSLRLSCAASGFTLDDYTIGWFRQAPGKEREGVSCINSITSNTYYADSVKGRFTISRDNAKNTVYLQMNSLTAEDTAIYYCAADSGLFSGSSCLKYRAMRFGSWGQGTQVTVSSGGGGSGGGGSQVQLQESGGGLVQVGSSLRLSCVTSGRTPSRYVMGWFRQAPGQEREFVAAISWSGRAPYADSVKGRFTISRDNAKNTVYLQMNSLKPEDTGVYYCAGGEGAIKWTTLDAYDYWGQGTQVTVSS	8 nM	–
